experiment: soluble on expression in E. coli; label from the status in PepcDB or PDB records

Row | Sequence | soluble on expression in E. coli
1 | MGSDKIHHHHHHMAGVMSRRLDVDALRALVAIERHGGVTRAAEILGLSQSAVSHKIRRLETSLDCEILTRKANAPMFTTAGQDLLGYARRILGIHDEAVLSLSKSPLQGKIALGMTEDTTCTDLSRILGRFRRLYPEVSVRTQVRMSLVLQEQLSQGALDAAIIQVFQHEVRPADILLFRETLHWVKSRDLVLSAGKPVPFLSFDENCFYRRWGIDVGQDEDTVLETVFECSSAAGIIAGVTAGLGVALLSQRYLQPAMEIVDDKFPKPPDLAYVIRRARVPRNPALETLVREIEAEVKRYGTLQIAV | not soluble
2 | MGSDKIHHHHHHMKPENLVKAVKILDNHIPKELDDPNSIAQAAEKLELKNFSQSELVNGFNLFFAQRFEDRLQIFNRITPPVIGDLMALVTEKLGLAKQEIFDPEIVFPDLIFQFASHFGQSIYGRAADQIIDASLKKLANIYRFDFTDSDHEKIVVSRILGIDFAAEMNHFFKASNLKVGESAILLVNNSDLQSNSFAEILKKNKNMALLAIIELPTKLFKHSEMRSSLLILRRKVDNEKVTAQVLLAQIPELSNKEDFSKFVSQLETWKKENL | not soluble
3 | GYALTEGEDYLVLDKPIPQEQSGKIEVLEFFGYFCVHCHHFDPLLLKLGKALPSDAYLRTEHVVWQPEMLGLARMAAAVNLSGLKYQANPAVFKAVYEQKIRLENRSVAGKWALSQKGFDGKKLMRAYDSPEAAAAALKMQKLTEQYRIDSTPTVIVGGKYRVIFNNGFDGGVHTIKELVAKVREERKRQTPAVQK | soluble
4 | MGHHHHHHSHMTSFEDADTEETVTCLQMTVYHPGQLQCGIFQSISFNREKLPSSEVVKFGRNSNICHYTFQDKQVSRVQFSLQLFKKFNSSVLSFEIKNMSKKTNLIVDSRELGYLNKMDLPYRCMVRFGEYQFLMEKEDGESLEFFETQFILSPRSLLQENNWPPHRPIPEYGTYSLCSSQSSSPTEMDENES | not soluble
5 | MNRKIERMIIELEKECKAQNVELLLCATNFETGQGSTAFCGSVIGLAILLQKLVGDLKEQLSISESCDCPECVAEKAEDAANEKSMDELLTAFLRGELQ | not soluble
6 | MTQVSIIVPVLNEESTIHSAVSRLCRDFPDCELIVVDGGSTDATAELAALHATVIGSERGRAKQMNEGARHASGGILWFIHADTAIEPEALGQIRSVLADPAVVAGGLTLRFDRRTPALNYLAWTSNARARRLHHIFGDQAMFIRRTAFDELGGFPDLAIMEDLEMSRRLHRRGPLRLLPATSTASSRRLTAHGTWRMIAFMQYLKLLYFAGADPEAIRARYTAGPRLFPKRNPATLEHHHHHH | not soluble
7 | MGSDKIHHHHHHMKPGSHLFSPISFQESTPLYRQLYERVRRAISVGLLFPGDRLPSARMLAKELGVARGTIEQAYSLLIAEGYLQAHGQAGTRVNPDLPSASLPVAEAPVSPSAPDAEQQILWRPSQLLPFQMGVPAFDAFPRKLWARLGARYLRSMQLPDLDYPAPYGLPALRNAIASYLQVSRGIDCTANQVFITSGWRANLQLATLALLKSGQRVWVEDPGYPPTRQLLSQSGLCPIAVSVDREGINVERGIAQANDASMAVVTPAHQSPLSMSLSLPRRQALLQWATAQNAWIMEDDYDGEYRYISRPLPALASLDRHGRVLYAGTFSKVLFPGIRLAYLVVPQSQVAAFEHINRIFFASASPTMTQSIVASFITEGHFARHIQRTRRLYAERRTATITVLQGILGNRIRIDSQPGGMHLVLRLPDKFSDRQLADRLLAQGIAVQPLSRWAVSGSGDNALLVSFTNCTTVMESERLAALILAECEQHGNSLA | not soluble
8 | MSLDGEQTTREPVLKAMFLADTHLLGEFLGHWLDKLRREWQMERAFQTALWLLQPEVVFILGDIFDEGKWSTPEAWADDVERFQKMFRHPSHVQLKVVAGNHDIGFHYEMNTYKVERFEKVFSSERLFSWKGINFVMVNSVALNGDGCGICSETEAELIEVSHRLNCSREARGSSRCGPGPLLPTSAPVLLQHYPLYRRSDANCSGEDAAPAEERDIPFKENYDVLSREASQKLLWWLQPRLVLSGHTHSACEVHHGGRVPELSVPSFSWRNRNNPSFIMGSITPTDYTLSKCYLPREEGHHHHHH | not soluble
9 | MAHHHHHHMWRPRRVQGLGSGEDICHLVSAVRRQGIRSLPSGLVVAAEIAYRCCSYSIESFQTDSTEAKKPSRVVGTAPTERQKRPSALAPSSSIPATEKAGIIVEWVPDALGYHLPLGLRERWEPSSKASPTEAGGLKASNDAETHGTEQQELEEVSSVGNPCASSRVGDGGGGSGHRSGHSDGPPFYGPLPNFATSPVFEWERCLWQWRPVKITPAAGTPHHTSLTVTAPISSSGEKRPLRDEMHCSDGGENDLAEGGLGESSQVYHLVPFLLCPTLEVCATQPLMHGSLRKELAAAQNACHHLRRSWPEDAKQDLLGTRRCPTYSEHETRLWSITIPTPVGELALSSPQDTDGDDANKQNTMLDLPTFAMIEGEPPMRVGGRIRACCGHGITSPAPPEAETWEAATAAARNERSTSAGNAAVPYVHVFCSEMSAACSDSLLSQTGIKASELPTPSSCDVSSPTLPLTRRNVVGGGLAELILAVDRYAALIARGDLALSAACWATLCDTKSWWVVQRLRVCPLEMERELVAATEAHKLWQQYAVSRNSTLVGKSSHGICFYDYPFLAKWPLGRQAATKATAPIRAHTRWRV | not soluble
10 | MSLRTASVIVDLPTRQTNQPFTYLIPDDLLDFNLLGHRVRVPFGKRNLMGYVVAVGQSERSDFQLKKIESIIDEKPVLNSEMLKLSEWLSNYVFSYRVQVIQTILPNAFKPKYLKGLKIVDQVPEKIKENIFLNNQEIEFLPKNYTSEQIKVINSLIRQGKIVQTTTIQKKNKGKKVKVLSNNLNDNDIATNLNKKSLSDSQKKLLIFLSGHRDGFFQVKELAEILDISKSTILTAEKKSWLKKSEVRMTRNPVKKIAVTKTNAVELNSDQKKVFNSVESAITKNENKTFLLEGITGSGKTEVYLQLIEKTIAQGKTALLLVPEIALTPQMIRLVKSRFLDSVALLHSGLSDGERLDQWEEIRDGKIKIVIGTRSAVFSPLTNIGLIIMDEEHETNYKQEGNPRYHARDIALWRAKYHQAVTLLGSATPSLESRARAQKGIFKLLTMNHRAVSGAKLPDVSIVDMREVWQKEHADNDFSPTLLKKIEERKENHEQTILLLNRRGFSSFVMCRNCGYVPRCPNCNLSLTLHMDSHSLKCHYCGYEEAIPKKCPVCGSPQIRYVGTGTEKIETKLNSLVNGIRVARLDQDTTKRKGSLEKILRDFGKGNYDVLLGTQMVAKGLDFPDVTLVGVINADIGLNLPDFRSGEKTFQLLTQVAGRSGRAGKTGEVIIQTFNPDNYAIKLAADQNYEGFYKTEMSIRHIADYSPYYYTIQVGIDGPDQFPASRAIDEVAEFIKPKLAKETIVLGPTPKAIAKLRNRYYFQIILKYKKDPNIESTLSELQTVFGEKLPKDIYLSIDRDPVSEGHHHHHH | soluble
11 | MNNIENVDQKLIENLANLMSSEVRAKIYIYLRKYNKSTVDEIAGGTGIYPSTVRESILDMYNTGYVSREKMDKEGLGKKPYLYTAAAPSEIVRKISKNIQEKLNDLIMVDRRIESKELKIPFVPVKIVVDEKYRD | not soluble
12 | MYFEGYGYRGSTFEQTYRCYPASFIDKPQLETGDKIIMPPSALDRLASLHIEYPMLFEVHNAAAERTSHCGVLEFIAEEGMIYMPYWMMQNLLLTEGDMVFIKNANLPKGTYVKLQPHTTDFLDISNPKAILEKTLRNYSCLTTGDSIMVAYNNKKYYIDIVETKPSNAISIIETDCEVDFAPPLDYKEPERQKAAVPPSTAPTAEEAAEEEPKFIPFTGPGRRLDGKAPKDKDVSASSPAKRQANATNSVQPSTASTSQSSSSRKTTEKLVFGPGGNRTSKETEKVPEKEPKEDPKKDEPKFSAFTGRKYSLKG | soluble
13 | MEMKNVKGTKDYLPEEQVLRNKIKRACEDTFERYGCKPLETPTLNMYELMSYKYGGGDEILKEIYTLQDQGKRNLALRYDLTIPFAKVVAMNPNIRLPFKRYEIGKVFRDGPIKQGRFREFIQCDVDIVGVESVMAEAELMSMAFELFRTLNLEVTIQYNNRKLLNGILESINIPTERTSDVILSLDKIEKIGIDGVRKDVLERGISEEMADTICNTVLSCLKLTIADFKEAFNNPLVADGVNELQQLQQYLIALGINENAIFNPFLARGLTMYTGTVYEIFLKDGSITSSIGSGGRYDNIIGAFRGDNMNYPTVGISFGLDVIYTALSQKETISSTADVFIIPLGTELQCLQIAQQLRSTTSLKVELELAGRKLKRALNYANKENIPYVLIIGEDELSTETVVLRNMKEGSEVKVPLSSLKDNTFNNYCNIPIKL | soluble
14 | MGSDKIHHHHHHMDKLSFNIFPNVNFIDLCMYQFGHEQCEPGHSFGPATRNHYLFHYVLSGTGTLMADNAKGITQTYNIKSGQGFLIFPGQINTYIADDKLPWEYIWIEFDGLRVKEALTTTELTKNNPVYHTHSKDIREKLVEEMLYITRHPSESPYHLIGHMYLFLDYLMQSAKSSKLVPGGKMSDFYIKEAMNYIEQNFQNDISIEDIAGVCGINRSYLGKIFKNSVGHSPQEFLMNYRMIKATELLKLTSLSIADVGSAVGYENQLHFSRAFKNIYGVAPREWRNEHK | not soluble
15 | MAEVTGVRALTGAALDAALEDVARLRIAVFRAWPYLYDGDLDYERDYLQAYRNSDRAIVVGAFDGDRLIGASTGMPLADHADDFAAAFADSGLALDQVFYCAESVLLPDYRGHGVGHRFFDLREGHARALGFAKC | not soluble
16 | MGSDKIHHHHHHMVKSANLLHVSQPAVTKTVRELEEILGVSLFEREGRGIRITRYGEVFLRHAGATLAALRHAVDSVSQEAAKAGPPVRVGALPTVATRIMPQAMTAFLAENTGSPIKIVTGDNSVLLEQLRIGELDLVVGRLAAPEKMAGFSFEHLYSEPVVFVVRAGHPLLTGETAPFERMRDFPVLMPTRNSIIRPLVDYFLIANGVATLPNQIETVSDSFGRAFLKISDAVWVISEGVVAGDIAEGTICALPIDCSPTRGPVGLTVRADAMATLPQSLLMQAIRDAAAAIMP | not soluble
17 | MGSDKIHHHHHHMFSKIEFKNFMSFSNLTFDLLNRGKCKDIIAIYGENGSGKTNIVEAFKLLVLSLQSMESLNENTRLQSLLKEQTNKEENQKTNFGDISEILDKISFFTTFKGIAKNTHRIASEGNTILKYYFNIEKDNGYYLLEYNENNELVKEELVFKIKSNKGVHFSITNIDGLSQSLNKTIFKNTIFKDLTEQIEKYWGKHTFLSIFNNYCLEVNEEFINEQVSINFQKVVDEFDKIFIWSGNFRGPFHSTELLLKDISKGKIDKSEKEKLSYTEEIIYKYFSALYIDIKDVKYKQDAQGQEIKYELMIRKNIGGDLLDVPISLESQGTKNLLDLLKVFNNVLDGKICIVDEIDSGIHDLLMNSILNDLKGSVNGQLIFTTHDTTLLKELSPSSAYFLNVDIKGNKVIISGNEADKKIGVNNNLEKLYLSGFFGAVPDPLDIDFSDLFLDHNLSED | not soluble
18 | VNEIVVNPNATLDWQLALRQAAGKTDLARDMLQMLLDFLPEVRNKVEEQLVGENPEGLVDLIHKLHGSCGYSGVPRMKNLCQLIEQQLRSGTKEEDLEPELLELLDEMDNVAREASKIL | not soluble
19 | MCSSDSLQLHNVFVYGSFQDPDVINVMLDRTPEIVSATLPGFQRFRLKGRLYPCIVPSEKGEVHGKVLMGVTSDELENLDAVEGNEYERVTVGIVREDNSEKMAVKTYMWINKADPDMFGEWNFEEWKRLHKKKFIETFKKIMECKKKPQGQGNDDISHVLREDQ | soluble
